Data taken from patent US20210115102.

Sequence of ALU30-6 (chain, as listed by the source): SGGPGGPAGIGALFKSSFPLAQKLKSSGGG
Sequence of ALU30-19 (chain, as listed by the source): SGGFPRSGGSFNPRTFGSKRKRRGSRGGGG
Sequence of ALU30-8 (chain, as listed by the source): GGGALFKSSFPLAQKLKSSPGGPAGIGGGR
Sequence of ALU30-12 (chain, as listed by the source): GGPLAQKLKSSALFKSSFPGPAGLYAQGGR
Sequence of Factor Xa, recombinant human (chain): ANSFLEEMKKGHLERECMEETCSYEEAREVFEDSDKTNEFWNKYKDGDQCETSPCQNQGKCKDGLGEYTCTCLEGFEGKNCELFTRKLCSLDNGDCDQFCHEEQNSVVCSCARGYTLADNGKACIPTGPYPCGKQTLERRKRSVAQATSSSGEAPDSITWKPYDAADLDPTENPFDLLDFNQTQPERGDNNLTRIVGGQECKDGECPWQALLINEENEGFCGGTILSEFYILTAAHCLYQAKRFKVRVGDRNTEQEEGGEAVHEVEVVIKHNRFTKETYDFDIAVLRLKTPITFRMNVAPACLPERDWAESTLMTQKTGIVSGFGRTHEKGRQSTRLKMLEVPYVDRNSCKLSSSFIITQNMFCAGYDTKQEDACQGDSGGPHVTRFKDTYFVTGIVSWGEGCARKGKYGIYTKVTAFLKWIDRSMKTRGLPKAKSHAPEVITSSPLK
Sequence of ALU30-2 (chain, as listed by the source): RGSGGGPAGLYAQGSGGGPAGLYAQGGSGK
Sequence of MMP-9, recombinant human (chain, as listed by the source): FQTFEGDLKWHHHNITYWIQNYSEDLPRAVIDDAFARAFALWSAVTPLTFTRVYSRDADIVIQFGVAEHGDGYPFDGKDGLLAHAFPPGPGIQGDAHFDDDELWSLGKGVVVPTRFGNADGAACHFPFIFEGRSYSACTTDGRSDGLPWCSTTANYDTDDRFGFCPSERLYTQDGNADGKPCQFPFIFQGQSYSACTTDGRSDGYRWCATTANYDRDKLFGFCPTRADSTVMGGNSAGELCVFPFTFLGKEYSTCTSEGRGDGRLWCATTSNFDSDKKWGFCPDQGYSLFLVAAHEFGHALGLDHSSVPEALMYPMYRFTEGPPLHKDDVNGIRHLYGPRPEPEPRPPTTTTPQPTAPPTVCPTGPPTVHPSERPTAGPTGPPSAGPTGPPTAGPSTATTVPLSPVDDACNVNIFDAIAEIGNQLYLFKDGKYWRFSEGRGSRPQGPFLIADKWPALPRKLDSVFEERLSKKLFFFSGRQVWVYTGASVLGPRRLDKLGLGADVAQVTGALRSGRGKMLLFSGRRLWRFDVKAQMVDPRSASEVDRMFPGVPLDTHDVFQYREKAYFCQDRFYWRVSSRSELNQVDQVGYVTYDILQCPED
Sequence of ALU30-7 (chain, as listed by the source): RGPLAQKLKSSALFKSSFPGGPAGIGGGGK
Sequence of ALU30-9 (chain, as listed by the source): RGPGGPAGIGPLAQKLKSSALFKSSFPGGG
Sequence of ALU30-15 (chain, as listed by the source): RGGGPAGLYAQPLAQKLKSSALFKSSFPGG
Sequence of Hepsin, recombinant human (chain, as listed by the source): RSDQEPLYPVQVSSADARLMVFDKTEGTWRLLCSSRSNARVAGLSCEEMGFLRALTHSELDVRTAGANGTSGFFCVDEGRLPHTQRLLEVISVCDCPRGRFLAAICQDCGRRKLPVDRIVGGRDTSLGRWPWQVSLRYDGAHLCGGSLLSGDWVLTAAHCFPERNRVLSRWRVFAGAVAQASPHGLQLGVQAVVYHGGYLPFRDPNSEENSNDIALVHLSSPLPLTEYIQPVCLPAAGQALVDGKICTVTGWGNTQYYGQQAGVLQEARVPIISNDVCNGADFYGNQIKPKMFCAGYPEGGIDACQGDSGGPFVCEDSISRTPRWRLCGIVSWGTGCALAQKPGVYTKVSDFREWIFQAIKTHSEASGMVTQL
Sequence of ALU30-14 (chain, as listed by the source): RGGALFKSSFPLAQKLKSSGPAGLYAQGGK
Sequence of ALU30-17 (chain, as listed by the source): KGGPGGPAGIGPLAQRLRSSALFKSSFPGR
Sequence of ALU30-5 (chain, as listed by the source): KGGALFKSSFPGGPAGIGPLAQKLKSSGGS
Sequence of ALU30-10 (chain, as listed by the source): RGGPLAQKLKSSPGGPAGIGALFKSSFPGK
Sequence of ALU30-13 (chain, as listed by the source): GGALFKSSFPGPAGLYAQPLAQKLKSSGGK
Sequence of ALU30-1 (chain, as listed by the source): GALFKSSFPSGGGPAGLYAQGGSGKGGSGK
Sequence of ALU30-18 (chain, as listed by the source): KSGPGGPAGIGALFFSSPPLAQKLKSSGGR
Sequence of ALU30-11 (chain, as listed by the source): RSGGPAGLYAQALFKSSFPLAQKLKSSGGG
Sequence of ALU30-16 (chain, as listed by the source): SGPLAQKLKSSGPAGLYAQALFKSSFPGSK
Sequence of ALU30-3 (chain, as listed by the source): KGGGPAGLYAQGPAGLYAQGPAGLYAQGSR
Sequence of ALU30-4 (chain, as listed by the source): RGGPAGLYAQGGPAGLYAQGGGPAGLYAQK

Substance	30-mer substrate degradation (MSP-MS) (ALU30-18)	30-mer substrate degradation (MSP-MS) (ALU30-11)	30-mer substrate degradation (MSP-MS) (ALU30-9)	30-mer substrate degradation (MSP-MS) (ALU30-6)	30-mer substrate degradation (MSP-MS) (ALU30-19)	30-mer substrate degradation (MSP-MS) (ALU30-14)	30-mer substrate degradation (MSP-MS) (ALU30-15)	30-mer substrate degradation (MSP-MS) (ALU30-10)	30-mer substrate degradation (MSP-MS) (ALU30-1)	30-mer substrate degradation (MSP-MS) (ALU30-5)	30-mer substrate degradation (MSP-MS) (ALU30-16)	30-mer substrate degradation (MSP-MS) (ALU30-7)	30-mer substrate degradation (MSP-MS) (ALU30-13)	30-mer substrate degradation (MSP-MS) (ALU30-12)	30-mer substrate degradation (MSP-MS) (ALU30-8)	30-mer substrate degradation (MSP-MS) (ALU30-17)	30-mer substrate degradation (MSP-MS) (ALU30-2)	30-mer substrate degradation (MSP-MS) (ALU30-3)	30-mer substrate degradation (MSP-MS) (ALU30-4)	also measured
Factor Xa, recombinant human	The peptide with the motif CTSL1_2 was cleaved at the lowest efficiency.	all other peptides bearing a CTSL1_1 motif were cleaved by Factor Xa at either ALF|KSSFP (SEQ ID NO: 198) or ALFKS|SFP (SEQ ID NO: 198)	all other peptides bearing a CTSL1_1 motif were cleaved by Factor Xa at either ALF|KSSFP (SEQ ID NO: 198) or ALFKS|SFP (SEQ ID NO: 198)	all other peptides bearing a CTSL1_1 motif were cleaved by Factor Xa at either ALF|KSSFP (SEQ ID NO: 198) or ALFKS|SFP (SEQ ID NO: 198)	Peptide Alu30-19 with this motif was completely degraded before the 5 min time point.	all other peptides bearing a CTSL1_1 motif were cleaved by Factor Xa at either ALF|KSSFP (SEQ ID NO: 198) or ALFKS|SFP (SEQ ID NO: 198)	all other peptides bearing a CTSL1_1 motif were cleaved by Factor Xa at either ALF|KSSFP (SEQ ID NO: 198) or ALFKS|SFP (SEQ ID NO: 198)	all other peptides bearing a CTSL1_1 motif were cleaved by Factor Xa at either ALF|KSSFP (SEQ ID NO: 198) or ALFKS|SFP (SEQ ID NO: 198)	all other peptides bearing a CTSL1_1 motif were cleaved by Factor Xa at either ALF|KSSFP (SEQ ID NO: 198) or ALFKS|SFP (SEQ ID NO: 198)	the only library peptide with significant cleavage was Alu30-5, cleaved at the CTSL1_1 motif ALFKS|SFP (SEQ ID NO: 198), upstream of a FAPα_1 motif	all other peptides bearing a CTSL1_1 motif were cleaved by Factor Xa at either ALF|KSSFP (SEQ ID NO: 198) or ALFKS|SFP (SEQ ID NO: 198)	all other peptides bearing a CTSL1_1 motif were cleaved by Factor Xa at either ALF|KSSFP (SEQ ID NO: 198) or ALFKS|SFP (SEQ ID NO: 198)	all other peptides bearing a CTSL1_1 motif were cleaved by Factor Xa at either ALF|KSSFP (SEQ ID NO: 198) or ALFKS|SFP (SEQ ID NO: 198)	all other peptides bearing a CTSL1_1 motif were cleaved by Factor Xa at either ALF|KSSFP (SEQ ID NO: 198) or ALFKS|SFP (SEQ ID NO: 198)	all other peptides bearing a CTSL1_1 motif were cleaved by Factor Xa at either ALF|KSSFP (SEQ ID NO: 198) or ALFKS|SFP (SEQ ID NO: 198)	all other peptides bearing a CTSL1_1 motif were cleaved by Factor Xa at either ALF|KSSFP (SEQ ID NO: 198) or ALFKS|SFP (SEQ ID NO: 198)				
Hepsin, recombinant human	the alternate CTSL1_2 motif was also cleaved at a much slower rate than CTSL1_1				Alu30-19 was cleaved at all three motifs within the first 15 min of the reaction											The ADAM17_1 motif was less efficiently cleaved than ADAM17_2				apparent catalytic efficiency (ALU30-9): The authentic peptide Alu30-19, as well as the top cleaved peptides Alu30-8,-9, -12, and -14 all had apparent catalytic efficiencies on the same order of 10^5 M^-1s^-1.; apparent catalytic efficiency (ALU30-19): The authentic peptide Alu30-19, as well as the top cleaved peptides Alu30-8,-9, -12, and -14 all had apparent catalytic efficiencies on the same order of 10^5 M^-1s^-1.; apparent catalytic efficiency (ALU30-14): The authentic peptide Alu30-19, as well as the top cleaved peptides Alu30-8,-9, -12, and -14 all had apparent catalytic efficiencies on the same order of 10^5 M^-1s^-1.; cleavage efficiency of 30-mer library peptides (ALU30-15): it had slightly higher hepsin susceptibility; apparent catalytic efficiency (ALU30-12): The authentic peptide Alu30-19, as well as the top cleaved peptides Alu30-8,-9, -12, and -14 all had apparent catalytic efficiencies on the same order of 10^5 M^-1s^-1.; apparent catalytic efficiency (ALU30-8): The authentic peptide Alu30-19, as well as the top cleaved peptides Alu30-8,-9, -12, and -14 all had apparent catalytic efficiencies on the same order of 10^5 M^-1s^-1.
MMP-9, recombinant human			The FAPα_1 motif was not cleaved by MMP9, however, when followed either by the ADAM17_2 motif or the spacing residues GG.	the FAPα_1 motif was also cleaved within the peptides bearing FAPα_1 directly followed by the CTSL1_1 motif at PGGPAG|GALF (SEQ ID NO: 247); these were lower efficiency cleavages		The slowest peptides bear the MMP14_1 motif near the C-terminus of the 30-mer peptide.	The next most efficient substrates contained the pair of motifs where MMP14_1 was followed directly by ADAM17_2.	the FAPα_1 motif was also cleaved within the peptides bearing FAPα_1 directly followed by the CTSL1_1 motif at PGGPAG|GALF (SEQ ID NO: 247); these were lower efficiency cleavages	The single or double MMP14_1 motif-bearing peptides were next in the order.	The FAPα_1 motif was not cleaved by MMP9, however, when followed either by the ADAM17_2 motif or the spacing residues GG.		The FAPα_1 motif was not cleaved by MMP9, however, when followed either by the ADAM17_2 motif or the spacing residues GG.	The next most efficient substrates contained the pair of motifs where MMP14_1 was followed directly by ADAM17_2.	The slowest peptides bear the MMP14_1 motif near the C-terminus of the 30-mer peptide.	The FAPα_1 motif was not cleaved by MMP9, however, when followed either by the ADAM17_2 motif or the spacing residues GG.		The single or double MMP14_1 motif-bearing peptides were next in the order.	The most efficient MMP9 substrates were those that bore three-repeats of the MMP14_1 motif.	The most efficient MMP9 substrates were those that bore three-repeats of the MMP14_1 motif.	product formation at individual bonds (MSP-MS) (ALU30-2): the specific cleavage of the Alu30-2 peptide was more efficient than the Alu30-1 peptide; product formation at individual bonds (MSP-MS) (ALU30-1): the specific cleavage of the Alu30-2 peptide was more efficient than the Alu30-1 peptide
Thrombin, recombinant human	the CTSL1_2 motif had lower cleavage activity than did the CTSL1_1 motif (peptides Alu30-18 vs Alu30-6)	Thrombin showed higher activity than Factor Xa, and it cleaved each of the 30-mer peptides.	The two alternate ADAM17 motifs were cleaved with similar efficiency (peptides Alu30-17 vs Alu30-9).	the CTSL1_2 motif had lower cleavage activity than did the CTSL1_1 motif (peptides Alu30-18 vs Alu30-6)	Thrombin showed higher activity than Factor Xa, and it cleaved each of the 30-mer peptides.	Thrombin showed higher activity than Factor Xa, and it cleaved each of the 30-mer peptides.	the peptides Alu30-12, Alu30-13 and Alu30-15, with MMP14_1 motifs in combination with ADAM17_2 and CTSL1_1, were cleaved at lower efficiency by thrombin	Thrombin showed higher activity than Factor Xa, and it cleaved each of the 30-mer peptides.	The peptides Alu30-1 and Alu30-3 were the most rapidly cleaved in the library	Thrombin showed higher activity than Factor Xa, and it cleaved each of the 30-mer peptides.	Thrombin showed higher activity than Factor Xa, and it cleaved each of the 30-mer peptides.	Thrombin showed higher activity than Factor Xa, and it cleaved each of the 30-mer peptides.	the peptides Alu30-12, Alu30-13 and Alu30-15, with MMP14_1 motifs in combination with ADAM17_2 and CTSL1_1, were cleaved at lower efficiency by thrombin	the peptides Alu30-12, Alu30-13 and Alu30-15, with MMP14_1 motifs in combination with ADAM17_2 and CTSL1_1, were cleaved at lower efficiency by thrombin	Thrombin showed higher activity than Factor Xa, and it cleaved each of the 30-mer peptides.	The two alternate ADAM17 motifs were cleaved with similar efficiency (peptides Alu30-17 vs Alu30-9).	The peptide Alu30-2, bearing two MMP14_1 motifs, was less susceptible to thrombin	The peptides Alu30-1 and Alu30-3 were the most rapidly cleaved in the library	Alu30-4 was also an efficient substrate	
